Data: patent publication US20030220239A1 (published 2003)

How the values were obtained:
[1] = biological target: HLA-A2.1 (HLA-A*0201) on T2 cells (human); experiment: T2 cell HLA-A2 stabilisation, flow cytometry
[2] = biological target: HLA-A2.1 (HLA-A*0201) on T2 cells (human); experiment: T2 cell HLA-A*0201 stabilisation, flow cytometry
[3] = biological target: HLA-A2.1 (HLA-A*0201) on T2 cells (human); experiment: T2 cell HLA-A2.1 stabilisation, flow cytometry
Protocol: Peptide was mixed with the cells by repipeting before distributing to the plate (alternatively peptide can be added to individual wells), and the plate was rocked gently for 2 minutes. Incubation was in a 5% CO₂ incubator at 37° C. The next day the unbound peptide was removed by washing twice with serum free RPMI medium and a saturating amount of anti-class I HLA monoclonal antibody, fluorescein isothiocyanate (FITC)-conjugated anti-HLA A2, A28 (One Lambda, Canoga Park, Calif.) was added. After incubation for 30 minutes at 4° C., cells were washed 3 times with PBS supplemented with 0.5% BSA, 0.05% (w/v) sodium azide, pH 7.4-7.6 (staining buffer). (Alternatively W6/32 (Sigma) can be used as the anti-class I HLA monoclonal antibody the cells washed with staining buffer and then incubated with fluorescein isothiocyanate (FITC)-conjugated goat F(ab′) antimouse-IgG (Sigma) for 30 min at 4° C. and washed 3 times as before.) The cells were resuspended in 0.5 ml staining buffer. […] If flow cytometry is not to be performed immediately the cells can be fixed by adding a quarter volume of 2% paraformaldehyde and storing in the dark at 4° C.

binding result [1]	Binder	also measured
binds	LPWHRLFLL (also called Tyr 208-216) [tyrosinase208-216, LPWHRLFLL]	
binds	FLPWHRLFL (also called Tyr 207-215) [tyrosinase207-215, FLPWHRLFL]	
	MMNDQLMFL [PSMA663-671 (SEQ ID NO. 66)]	binding result [2]: binds
	KASEKIFYV [SSX-2 41-49, KASEKIFYV]	binding result [3]: binds
